Results reported in US20200087373A1 (UNIVERSITY OF COPENHAGEN, published 2020).
Ends that are not written are not given here. * marks the point of attachment. C16 diacid = O=C(O)CCCCCCCCCCCCCCC(=O)*; Stearoyl = CCCCCCCCCCCCCCCCCC(=O)*; Palmitoyl = CCCCCCCCCCCCCCCC(=O)*; Myristoyl = CCCCCCCCCCCCCC(=O)*; Lauroyl = CCCCCCCCCCCC(=O)*

T1: human GIP receptor (human, UniProt P48546 22-466)
T1 construct: whole, on cells; Transiently transfected COS-7 cells expressing the human GIP receptor; also called hGIPR
T1 sequence (looked up): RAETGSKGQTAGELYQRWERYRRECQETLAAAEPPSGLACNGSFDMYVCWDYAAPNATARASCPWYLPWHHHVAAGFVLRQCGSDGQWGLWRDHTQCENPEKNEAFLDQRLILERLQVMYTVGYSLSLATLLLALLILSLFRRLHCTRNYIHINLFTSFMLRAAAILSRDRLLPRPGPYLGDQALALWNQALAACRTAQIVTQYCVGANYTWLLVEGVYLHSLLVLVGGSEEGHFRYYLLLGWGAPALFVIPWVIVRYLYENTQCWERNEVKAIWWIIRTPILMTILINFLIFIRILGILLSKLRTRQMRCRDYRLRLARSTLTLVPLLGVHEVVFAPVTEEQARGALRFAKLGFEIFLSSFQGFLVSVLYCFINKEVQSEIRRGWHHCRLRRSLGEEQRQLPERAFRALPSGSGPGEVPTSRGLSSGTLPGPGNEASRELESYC


What was measured:
[1] = target: T1, human GIP receptor; experiment: 125I-hGIP(1-42) competition binding, COS-7 cells expressing human GIPR
Procedure: (§1) After incubation, the cells were washed twice in ice-cold binding buffer (+/−2% HSA) and lysed using 200 mM NaOH with 1% SDS for 30 min. Nonspecific binding was determined as the binding of radioactive ligand to untransfected cells.

[2] = target: T1, human GIP receptor; experiment: 125I-hGIP competition binding on hGIPR COS-7 cells; fold in affinity, paired, reference taken as GIP(3-30)NH2
Procedure: as §1

[3] = target: T1, human GIP receptor; experiment: cell-based or functional assay
[4] = target: T1, human GIP receptor; experiment: 125I-hGIP(1-42) competition binding, COS-7 cells expressing human GIPR, without HSA;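 further: nonspecific binding defined as radioligand bound to cells lacking the transfected receptor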
Procedure: as §1

[5] = target: T1, human GIP receptor; experiment: cell-based or functional assay; remark: listed apart in the source
[6] = target: T1, human GIP receptor; experiment: 125I-hGIP(1-42) competition binding, COS-7 cells expressing human GIPR, with 2% HSA;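 further: nonspecific signal taken as radioligand bound to untransfected cells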
Procedure: as §1

[7] = target: T1, human GIP receptor; experiment: ratio of Ki with 2% HSA to Ki without HSA, 125I-hGIP competition binding on hGIPR COS-7 cells;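 further: nonspecific binding was defined as radioligand signal on cells lacking the receptor transfection, with cell lysates measured after washes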
Procedure: as §1

| Binder | IC50 [1] | fold (paired) [2] | cAMP - antagonisme IC50 [3] | cAMP - antagonisme fold (paired) [3] | Ki [4] | cAMP accumulation Fold (fold change from GIP(5-30)NH2) [5] | cAMP accumulation IC50 [5] | cAMP accumulation logIC50 [5] | Ki [6] | Fold (Ki + HSA / Ki - HSA) [7] |
| --- | --- | --- | --- | --- | --- | --- | --- | --- | --- | --- |
| Palmitoyl-EGTFISDYSIAMDKIHQQDFVNWLLAQK-NH2 [AT104 [hGIP(3-30)NH2-C16/3]] | 75 nM | 4.9 fold |  |  |  |  |  |  |  |  |
| EGTFISDYSIAMDK(Palmitoyl)IHQQDFVNWLLAQK-NH2 [AT105 [hGIP(3-30)NH2-C16/16]] | 522 nM | 34 fold | 23.8 nM | 3.4 fold |  |  |  |  |  |  |
| TFISDYSIAMDK(C16 diacid)IHQQDFVNWLLAQK-NH2 (N-terminus assumed; SMILES CC[C@H](C)[C@H](NC(=O)[C@H](CO)NC(=O)[C@H](Cc1ccc(O)cc1)NC(=O)[C@H](CC(=O)O)NC(=O)[C@H](CO)NC(=O)[C@@H](NC(=O)[C@H](Cc1ccccc1)NC(=O)[C@@H](N)[C@@H](C)O)[C@@H](C)CC)C(=O)N[C@@H](C)C(=O)N[C@@H](CCSC)C(=O)N[C@@H](CC(=O)O)C(=O)N[C@@H](CCCCNC(=O)CCCCCCCCCCCCCCC(=O)O)C(=O)N[C@H](C(=O)N[C@@H](Cc1c[nH]cn1)C(=O)N[C@@H](CCC(N)=O)C(=O)N[C@@H](CCC(N)=O)C(=O)N[C@@H](CC(=O)O)C(=O)N[C@@H](Cc1ccccc1)C(=O)N[C@H](C(=O)N[C@@H](CC(N)=O)C(=O)N[C@@H](Cc1c[nH]c2ccccc12)C(=O)N[C@@H](CC(C)C)C(=O)N[C@@H](CC(C)C)C(=O)N[C@@H](C)C(=O)N[C@@H](CCC(N)=O)C(=O)N[C@@H](CCCCN)C(N)=O)C(C)C)[C@@H](C)CC, also called AT140 [hGIP(5-30)-C16-diacid/16]) [AT140 [hGIP(5-30)NH2-C16diacid/16]] |  |  |  |  | 2160 nM | 7.4 fold | 204 nM | -6.69 log(M) | 3280 nM | 1.5 fold |
| Lauroyl-EGTFISDYSIAMDKIHQQDFVNWLLAQK-NH2 [AT101 [hGIP(3-30)NH2-C12/3]] | 9.9 nM | 0.7 fold |  |  |  |  |  |  |  |  |
| TFISDYSIAMDKIHQQDFVNWLLK(C16 diacid)QK-NH2 (N-terminus assumed; SMILES CC[C@H](C)[C@H](NC(=O)[C@H](CO)NC(=O)[C@H](Cc1ccc(O)cc1)NC(=O)[C@H](CC(=O)O)NC(=O)[C@H](CO)NC(=O)[C@@H](NC(=O)[C@H](Cc1ccccc1)NC(=O)[C@@H](N)[C@@H](C)O)[C@@H](C)CC)C(=O)N[C@@H](C)C(=O)N[C@@H](CCSC)C(=O)N[C@@H](CC(=O)O)C(=O)N[C@@H](CCCCN)C(=O)N[C@H](C(=O)N[C@@H](Cc1c[nH]cn1)C(=O)N[C@@H](CCC(N)=O)C(=O)N[C@@H](CCC(N)=O)C(=O)N[C@@H](CC(=O)O)C(=O)N[C@@H](Cc1ccccc1)C(=O)N[C@H](C(=O)N[C@@H](CC(N)=O)C(=O)N[C@@H](Cc1c[nH]c2ccccc12)C(=O)N[C@@H](CC(C)C)C(=O)N[C@@H](CC(C)C)C(=O)N[C@@H](CCCCNC(=O)CCCCCCCCCCCCCCC(=O)O)C(=O)N[C@@H](CCC(N)=O)C(=O)N[C@@H](CCCCN)C(N)=O)C(C)C)[C@@H](C)CC) [AT188 [hGIP(5-30)NH2[A28K]-C16diacid/28]] |  |  |  |  | 144 nM | 6.8 fold | 186 nM | -6.73 log(M) | 462 nM | 3.2 fold |
| TFISDYSIAMDKIHQQDFVNWLLAK(C16 diacid)K-NH2 (N-terminus assumed; SMILES CC[C@H](C)[C@H](NC(=O)[C@H](CO)NC(=O)[C@H](Cc1ccc(O)cc1)NC(=O)[C@H](CC(=O)O)NC(=O)[C@H](CO)NC(=O)[C@@H](NC(=O)[C@H](Cc1ccccc1)NC(=O)[C@@H](N)[C@@H](C)O)[C@@H](C)CC)C(=O)N[C@@H](C)C(=O)N[C@@H](CCSC)C(=O)N[C@@H](CC(=O)O)C(=O)N[C@@H](CCCCN)C(=O)N[C@H](C(=O)N[C@@H](Cc1c[nH]cn1)C(=O)N[C@@H](CCC(N)=O)C(=O)N[C@@H](CCC(N)=O)C(=O)N[C@@H](CC(=O)O)C(=O)N[C@@H](Cc1ccccc1)C(=O)N[C@H](C(=O)N[C@@H](CC(N)=O)C(=O)N[C@@H](Cc1c[nH]c2ccccc12)C(=O)N[C@@H](CC(C)C)C(=O)N[C@@H](CC(C)C)C(=O)N[C@@H](C)C(=O)N[C@@H](CCCCNC(=O)CCCCCCCCCCCCCCC(=O)O)C(=O)N[C@@H](CCCCN)C(N)=O)C(C)C)[C@@H](C)CC) [AT189 [hGIP(5-30)NH2[Q29K]-C16diacid/29]] |  |  |  |  | 85.5 nM | 3 fold | 83.2 nM | -7.08 log(M) | 276 nM | 3.2 fold |
| EGTFISDYSIAMDK(Lauroyl)IHQQDFVNWLLAQK-NH2 [AT102 [hGIP(3-30)NH2-C12/16]] | 59.1 nM | 6.1 fold |  |  |  |  |  |  |  |  |
| Myristoyl-EGTFISDYSIAMDKIHQQDFVNWLLAQK-NH2 [AT110 [hGIP(3-30)NH2-C14/3]] | 55 nM | 5.2 fold |  |  |  |  |  |  |  |  |
| {C16 diacid}-TFISDYSIAMDKIHQQDFVNWLLAQK-NH2 (SMILES CC[C@H](C)[C@H](NC(=O)[C@H](CO)NC(=O)[C@H](Cc1ccc(O)cc1)NC(=O)[C@H](CC(=O)O)NC(=O)[C@H](CO)NC(=O)[C@@H](NC(=O)[C@H](Cc1ccccc1)NC(=O)[C@@H](NC(=O)CCCCCCCCCCCCCCC(=O)O)[C@@H](C)O)[C@@H](C)CC)C(=O)N[C@@H](C)C(=O)N[C@@H](CCSC)C(=O)N[C@@H](CC(=O)O)C(=O)N[C@@H](CCCCN)C(=O)N[C@H](C(=O)N[C@@H](Cc1c[nH]cn1)C(=O)N[C@@H](CCC(N)=O)C(=O)N[C@@H](CCC(N)=O)C(=O)N[C@@H](CC(=O)O)C(=O)N[C@@H](Cc1ccccc1)C(=O)N[C@H](C(=O)N[C@@H](CC(N)=O)C(=O)N[C@@H](Cc1c[nH]c2ccccc12)C(=O)N[C@@H](CC(C)C)C(=O)N[C@@H](CC(C)C)C(=O)N[C@@H](C)C(=O)N[C@@H](CCC(N)=O)C(=O)N[C@@H](CCCCN)C(N)=O)C(C)C)[C@@H](C)CC) [AT137 [hGIP(5-30)NH2-C16diacid/5]] |  |  |  |  | 59.3 nM | 3.7 fold | 102 nM | -6.99 log(M) | 117 nM | 2 fold |
| Stearoyl-EGTFISDYSIAMDKIHQQDFVNWLLAQK-NH2 [AT113 [hGIP(3-30)NH2-C18/3]] | 41400 nM | 16400 fold |  |  |  |  |  |  |  |  |
